What was measured:
[1] = target: EfmRseP with substitution H18A (Enterococcus faecium P21) (UniProt I3U2R6)
[2] = target: EfmRseP with substitution N364A (Enterococcus faecium P21) (UniProt I3U2R6)
[3] = target: Fusion of EfmRseP (1–170) and LpRseP (171–425) (Enterococcus faecium P21 | Lactiplantibacillus plantarum WCFS1) (UniProt I3U2R6)
[4] = target: RseP from Lactiplantibacillus plantarum WCFS1, C-terminal 6× His-tag (Lactiplantibacillus plantarum WCFS1)
[5] = target: EfmRseP with substitution D372A (Enterococcus faecium P21) (UniProt I3U2R6)
[6] = target: EfmRseP with substitution N359A (Enterococcus faecium P21) (UniProt I3U2R6)
[7] = target: EfmRseP with substitution P367A (Enterococcus faecium P21) (UniProt I3U2R6)
[8] = target: Truncation of EfmRseP (1–39, 139–422) Δ40–138 (Enterococcus faecium P21) (UniProt I3U2R6)
[9] = target: EfmRseP with the triple alanine substitution of the HExxH motif (Enterococcus faecium P21) (UniProt I3U2R6)
[10] = target: Fusion of LpRseP (1–171, 326–425) and EfmRseP (172–325) (Lactiplantibacillus plantarum WCFS1 | Enterococcus faecium P21) (UniProt I3U2R6)
[11] = target: EfmRseP with substitution P369A (Enterococcus faecium P21) (UniProt I3U2R6)
[12] = target: Fusion of LpRseP (1–201, 328–425) and EfmRseP (202–327) (Lactiplantibacillus plantarum WCFS1 | Enterococcus faecium P21) (UniProt I3U2R6)
[13] = target: Fusion of LpRseP (1–328) and EfmRseP (329–422) (Lactiplantibacillus plantarum WCFS1 | Enterococcus faecium P21) (UniProt I3U2R6)
[14] = target: Fusion of LpRseP (1–201, 222–425) and EfmRseP (202–221) (Lactiplantibacillus plantarum WCFS1 | Enterococcus faecium P21) (UniProt I3U2R6)
[15] = target: EfmRseP with substitution E19A (Enterococcus faecium P21) (UniProt I3U2R6)
[16] = target: Fusion of LpRseP (1–221) and EfmRseP (222–422) (Lactiplantibacillus plantarum WCFS1 | Enterococcus faecium P21) (UniProt I3U2R6)
[17] = target: Fusion of EfmRseP (1–200) and LpRseP (201–425) (Enterococcus faecium P21 | Lactiplantibacillus plantarum WCFS1) (UniProt I3U2R6)
[18] = target: Fusion of LpRseP (1–171, 222–425) and EfmRseP (172–221) (Lactiplantibacillus plantarum WCFS1 | Enterococcus faecium P21) (UniProt I3U2R6)
[19] = target: Fusion of EfmRseP (1–325) and LpRseP (326–425) (Enterococcus faecium P21 | Lactiplantibacillus plantarum WCFS1) (UniProt I3U2R6)
[20] = target: EfmRseP with substitution H22A (Enterococcus faecium P21) (UniProt I3U2R6)
[21] = target: Fusion of EfmRseP (1–221) and LpRseP (222–425) (Enterococcus faecium P21 | Lactiplantibacillus plantarum WCFS1) (UniProt I3U2R6)
[22] = target: Fusion of EfmRseP (1–32) and LpRseP (33–425) (Enterococcus faecium P21 | Lactiplantibacillus plantarum WCFS1) (UniProt I3U2R6)
[23] = target: RseP from Enterococcus faecium P21, C-terminal 6× His-tag (Enterococcus faecium P21) (UniProt I3U2R6)
[24] = target: RseP from Staphylococcus arlettae LMGT 4134, without His-tag (Staphylococcus arlettae LMGT 4134)
[25] = target: RseP from Staphylococcus haemolyticus, without His-tag (Staphylococcus haemolyticus)
[26] = target: RseP from Enterococcus faecalis V583, without His-tag (Enterococcus faecalis V583) (UniProt Q9RPP2)
[27] = target: RseP from Lactococcus lactis IL1403, without His-tag (Lactococcus lactis IL1403)
[28] = target: RseP from Staphylococcus aureus ATCC 14458, without His-tag (Staphylococcus aureus ATCC 14458)
[29] = target: RseP from Enterococcus faecium P21, without His-tag (Enterococcus faecium P21) (UniProt I3U2R6)
[30] = target: RseP from Lactiplantibacillus plantarum WCFS1, without His-tag (Lactiplantibacillus plantarum WCFS1)

Enterocin K1 (peptide)
MIC50 of EntK1 (growth inhibition, microtiter plate) towards L. plantarum expressing this RseP variant [1]: 0.02 µM | MIC50 of EntK1 (growth inhibition, microtiter plate) towards L. plantarum expressing this RseP variant [2]: 0.004 µM | MIC50 of EntK1 (growth inhibition, microtiter plate) towards L. plantarum expressing this RseP variant [3]: > 22 µM | MIC50 of EntK1 (growth inhibition, microtiter plate) towards L. plantarum expressing this RseP variant [4]: > 22 µM | MIC50 of EntK1 (growth inhibition, microtiter plate) towards L. plantarum expressing this RseP variant [5]: 0.7 µM | MIC50 of EntK1 (growth inhibition, microtiter plate) towards L. plantarum expressing this RseP variant [6]: > 22 µM | MIC50 of EntK1 (growth inhibition, microtiter plate) towards L. plantarum expressing this RseP variant [7]: 0.004 µM | MIC50 of EntK1 (growth inhibition, microtiter plate) towards L. plantarum expressing this RseP variant [8]: 2.7 µM | MIC50 of EntK1 (growth inhibition, microtiter plate) towards L. plantarum expressing this RseP variant [9]: 2.7 µM | MIC50 of EntK1 (growth inhibition, microtiter plate) towards L. plantarum expressing this RseP variant [10]: < 0.002 µM | MIC50 of EntK1 (growth inhibition, microtiter plate) towards L. plantarum expressing this RseP variant [11]: < 0.02 µM | MIC50 of EntK1 (growth inhibition, microtiter plate) towards L. plantarum expressing this RseP variant [12]: 0.09 µM | MIC50 of EntK1 (growth inhibition, microtiter plate) towards L. plantarum expressing this RseP variant [13]: > 22 µM | MIC50 of EntK1 (growth inhibition, microtiter plate) towards L. plantarum expressing this RseP variant [14]: > 22 µM | MIC50 of EntK1 (growth inhibition, microtiter plate) towards L. plantarum expressing this RseP variant [15]: 0.01 µM | MIC50 of EntK1 (growth inhibition, microtiter plate) towards L. plantarum expressing this RseP variant [16]: > 22 µM | MIC50 of EntK1 (growth inhibition, microtiter plate) towards L. plantarum expressing this RseP variant [17]: > 22 µM | MIC50 of EntK1 (growth inhibition, microtiter plate) towards L. plantarum expressing this RseP variant [18]: > 22 µM | MIC50 of EntK1 (growth inhibition, microtiter plate) towards L. plantarum expressing this RseP variant [19]: < 0.002 µM | MIC50 of EntK1 (growth inhibition, microtiter plate) towards L. plantarum expressing this RseP variant [20]: 0.01 µM | MIC50 of EntK1 (growth inhibition, microtiter plate) towards L. plantarum expressing this RseP variant [21]: 0.7 µM | MIC50 of EntK1 (growth inhibition, microtiter plate) towards L. plantarum expressing this RseP variant; footnote: low expression may contribute [22]: > 22 µM | MIC50 of EntK1 (growth inhibition, microtiter plate) towards L. plantarum expressing this RseP variant [23]: < 0.002 µM | MIC50 of EntK1 (growth inhibition, microtiter plate) towards L. plantarum expressing this RseP; footnote: low expression may contribute [24]: > 22 µM | MIC50 of EntK1 (growth inhibition, microtiter plate) towards L. plantarum expressing this RseP [25]: 0.17 µM | MIC50 of EntK1 (growth inhibition, microtiter plate) towards L. plantarum expressing this RseP [26]: 0.04 µM | MIC50 of EntK1 (growth inhibition, microtiter plate) towards L. plantarum expressing this RseP [27]: 0.09 µM | MIC50 of EntK1 (growth inhibition, microtiter plate) towards L. plantarum expressing this RseP; footnote: low expression may contribute [28]: > 22 µM | MIC50 of EntK1 (growth inhibition, microtiter plate) towards L. plantarum expressing this RseP [29]: 0.01 µM | MIC50 of EntK1 (growth inhibition, microtiter plate) towards L. plantarum expressing this RseP [30]: > 22 µM

Reference: publication PMC9672952
